Data set [1] has as its target T1, DndI (Salmonella enterica, UniProt E2D680). Briefly: nucleoside triphosphatase assay. Further details: gene A6E75_01280; full length (residues 1-596); homodimer in crystal; 1,788 bp dndI fragment cloned for FRET construct, but ORF printed elsewhere as 1,971 bp. It counts as biochemical. To be noted: r3.1 buffer, 10 mM MgCl2, pH 7.9, 37 °C; without or with phosphorothioate pUC19 DNA buffer presumed.

The target of data set [2] is T1, DndI. Further details: gene A6E75_01280. To be noted: r3.1 buffer, 10 mM MgCl2, pH 7.9, 37 °C; without or with phosphorothioate pUC19 DNA.
For the next data set, the target named is T2, DndI CTD (Salmonella enterica serovar Cerro 87, UniProt E2D680 239-596).
T2 sequence: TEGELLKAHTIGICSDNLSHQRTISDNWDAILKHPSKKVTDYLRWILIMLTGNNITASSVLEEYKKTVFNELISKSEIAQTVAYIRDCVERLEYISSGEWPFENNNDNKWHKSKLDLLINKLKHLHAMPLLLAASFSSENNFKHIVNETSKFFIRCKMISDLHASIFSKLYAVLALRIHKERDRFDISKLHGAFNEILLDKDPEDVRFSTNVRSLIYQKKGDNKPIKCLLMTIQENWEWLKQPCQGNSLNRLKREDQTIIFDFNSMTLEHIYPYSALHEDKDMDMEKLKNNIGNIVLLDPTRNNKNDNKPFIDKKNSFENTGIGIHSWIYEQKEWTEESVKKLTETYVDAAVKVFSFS
Briefly: EMSA; EMSA: 100 nM 70 bp DNA, 10 uL, NEB r3.1 buffer (composition and pH not given), 4 C, 1 h, 6% polyacrylamide gel. The conditions noted are these: protein: recombinant; tags: His (pET28a); blunt.

Data set [3] concerns the target T3, DndI (Salmonella enterica serovar Cerro 87, UniProt E2D680 1-596).
T3 sequence: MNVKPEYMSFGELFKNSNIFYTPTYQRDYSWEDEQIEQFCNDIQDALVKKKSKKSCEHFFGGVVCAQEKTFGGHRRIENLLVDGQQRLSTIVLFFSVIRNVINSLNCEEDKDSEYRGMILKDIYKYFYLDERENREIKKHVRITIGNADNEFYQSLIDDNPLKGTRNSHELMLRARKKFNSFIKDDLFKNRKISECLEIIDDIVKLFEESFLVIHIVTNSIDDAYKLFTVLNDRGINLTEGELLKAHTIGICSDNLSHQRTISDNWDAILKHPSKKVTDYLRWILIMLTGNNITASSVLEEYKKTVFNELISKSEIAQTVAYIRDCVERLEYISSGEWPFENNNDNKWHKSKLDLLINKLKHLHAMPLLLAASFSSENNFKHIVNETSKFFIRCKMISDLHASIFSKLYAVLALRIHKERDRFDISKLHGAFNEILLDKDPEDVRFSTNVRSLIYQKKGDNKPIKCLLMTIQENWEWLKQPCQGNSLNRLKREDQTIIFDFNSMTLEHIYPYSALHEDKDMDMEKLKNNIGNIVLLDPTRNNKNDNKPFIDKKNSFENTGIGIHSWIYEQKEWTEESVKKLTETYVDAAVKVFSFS
The data set is described as above. The conditions noted are these: protein: recombinant; tags: His (pET28a); chain copies: 2; blunt.

The target in another data set is DndI R87A (Salmonella enterica serovar Cerro 87, UniProt E2D680 1-596, R87A). The data set is described as follows: EMSA. To be noted: protein: recombinant; tags: His (pET28a); blunt. (A gel shift assay detects complexes by their altered migration in electrophoresis.)

`Nc1nc2c(ncn2[C@@H]2O[C@H](COP(=O)(O)OP(=O)(O)OP(=O)(O)O)[C@@H](O)[C@H]2O)c(=O)[nH]1` [GTP]: the nucleoside triphosphatase assay entry on DndI [1] is “DndI demonstrated weak hydrolytic capabilities with regard to GTP, CTP and UTP”.

Turning to `Nc1ncnc2c1ncn2[C@@H]1O[C@H](COP(=O)(O)OP(=O)(O)OP(=O)(O)O)[C@@H](O)[C@H]1O` [ATP], on DndI [2], the “malachite green phosphate release” value was “DndI exhibited an intrinsic ATPase activity”.

B1: 70 bp GAAC/GTTC EMSA DNA (PT-free) (dsDNA)
DNA 1: GCTGCAACAGGATGCCAATAAGACCAAAAAAACCAGCCAGCAAGCAGAGAACGACGAGAGCTGGCAATCT
DNA 2: AGATTGCCAGCTCTCGTCGTTCTCTGCTTGCTGGCTGGTTTTTTTGGTCTTATTGGCATCCTGTTGCAGC
As usually defined, the Kd is a measure of binding affinity in units of concentration. For the molecule B1, the Kd with DndI CTD is 0.66 µM; in the data set with DndI [3], 9.31 µM; with DndI R87A, 3.3 µM.

(Values after publication PMC11662687, “Molecular basis of the phosphorothioation-sensing antiphage defense system IscS–DndBCDE–DndI” (Nucleic Acids Research, 2024).)
